According to paper PMC10889368, “Mesenchymal Transglutaminase 2 Activates Epithelial ADAM17: Link to G-Protein-Coupled Receptor 56 (ADGRG1) Signalling” (International Journal of Molecular Sciences, 2024):
Substitutions are numbered along the chain they refer to. Blank lines part the entries; values can stand above or below the molecule they belong to.

Legend:
GPR56 (Mus musculus) = GPR56 (Mus musculus) (UniProt Q8K209); settings: cited from earlier work
[1] = target: T1, human C230-A TG2 mutant (oxidation resistant mutant of TG2) (human, UniProt P21980 1-687, C230A); experiment: pull-down; N-GPR56-Fc fusion proteins from CHO conditioned medium held on protein G-Sepharose beads, washed (20 mM Tris/HCl, pH 7.4, 150 mM NaCl), incubated with TG2 (50 µg/mL) in 50 µL overnight at 4 °C; eluted with 0.1 M glycine/HCl pH 2.5; Western blot; settings: both partners purified
T1 construct: transglutaminase 2, human, with C230A; source: E. coli BL21(DE3pLysS), purified to homogeneity
T1 sequence (looked up): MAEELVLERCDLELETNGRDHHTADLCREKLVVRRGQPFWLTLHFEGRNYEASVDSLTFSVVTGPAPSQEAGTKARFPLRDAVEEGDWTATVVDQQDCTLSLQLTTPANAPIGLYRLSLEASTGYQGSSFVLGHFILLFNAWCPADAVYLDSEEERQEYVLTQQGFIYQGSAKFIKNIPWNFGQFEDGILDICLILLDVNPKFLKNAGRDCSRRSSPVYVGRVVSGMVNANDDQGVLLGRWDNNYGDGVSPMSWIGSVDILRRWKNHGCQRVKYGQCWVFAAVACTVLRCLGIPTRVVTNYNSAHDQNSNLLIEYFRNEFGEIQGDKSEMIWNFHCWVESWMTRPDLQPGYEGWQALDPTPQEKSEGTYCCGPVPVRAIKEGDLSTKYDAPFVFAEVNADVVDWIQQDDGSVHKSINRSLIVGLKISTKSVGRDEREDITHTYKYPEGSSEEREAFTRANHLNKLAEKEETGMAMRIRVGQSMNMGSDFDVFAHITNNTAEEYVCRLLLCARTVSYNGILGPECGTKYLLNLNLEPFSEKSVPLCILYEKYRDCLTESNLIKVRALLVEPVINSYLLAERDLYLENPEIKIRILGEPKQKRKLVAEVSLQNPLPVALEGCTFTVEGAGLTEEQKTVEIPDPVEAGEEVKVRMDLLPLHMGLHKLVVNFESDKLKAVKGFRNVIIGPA

wild type murine TG2 = target: T2, wild type murine TG2 (murine, UniProt P21981 1-686); experiment: as above; settings: both partners purified
T2 construct: transglutaminase 2, mouse, wild type; construct not described
T2 sequence (looked up): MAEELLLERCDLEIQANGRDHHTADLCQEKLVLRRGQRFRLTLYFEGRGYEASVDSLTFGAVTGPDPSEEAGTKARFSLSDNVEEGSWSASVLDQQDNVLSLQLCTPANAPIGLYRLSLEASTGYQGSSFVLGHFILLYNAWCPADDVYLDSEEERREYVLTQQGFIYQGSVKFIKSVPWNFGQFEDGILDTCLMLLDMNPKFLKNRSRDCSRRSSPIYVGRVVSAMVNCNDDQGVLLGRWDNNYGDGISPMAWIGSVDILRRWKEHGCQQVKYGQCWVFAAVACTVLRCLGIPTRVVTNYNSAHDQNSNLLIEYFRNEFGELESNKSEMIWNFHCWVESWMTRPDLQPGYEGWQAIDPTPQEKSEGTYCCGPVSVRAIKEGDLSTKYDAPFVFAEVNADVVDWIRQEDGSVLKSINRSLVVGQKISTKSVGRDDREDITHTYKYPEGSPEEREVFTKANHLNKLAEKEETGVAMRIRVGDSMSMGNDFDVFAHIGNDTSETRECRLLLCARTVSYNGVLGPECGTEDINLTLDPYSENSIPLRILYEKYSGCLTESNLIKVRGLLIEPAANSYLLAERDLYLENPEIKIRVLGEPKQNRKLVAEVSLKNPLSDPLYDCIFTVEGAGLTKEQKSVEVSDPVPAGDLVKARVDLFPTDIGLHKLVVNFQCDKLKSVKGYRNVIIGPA

[2] = target: T3, human recombinant transglutaminase 2 (TG2), wild type (human, UniProt P21980 1-687); experiment: as above; settings: both partners purified
T3 construct: transglutaminase 2, human; also called native TG2; wild type TG2; source: E. coli BL21(DE3pLysS), purified to homogeneity
T3 sequence (looked up): T1 sequence (looked up) with A230C

[3] = target: T4, C277S-TG2 (catalytically deficient TG2 C277S mutant) (human, UniProt P21980 1-687, C277S); experiment: SPR; BIAcore T200, protein A sensor chip; 270-320 RU of 1-382 N-GPR56-Fc fusion protein, or conditioned medium containing it (1:10 in HBS), captured; C277S-TG2 (DTT treated) as analyte, 8 serial dilutions; 25 °C, HBS (10 mM Hepes pH 7.4, 0.15 M NaCl, 3 mM EDTA, 0.005% P20), 30 µL/min; with 20 mM Ca2+; equilibrium analysis; settings: both partners purified
T4 construct: transglutaminase 2 with C277S; the results call the analyte of the kinetic studies human TG2; Incubated with 10 mM DTT for 10 min and re-buffered into HBS before SPR; source: E. coli BL21(DE3pLysS), purified to homogeneity
T4 sequence (looked up): T1 sequence (looked up) with A230C, C277S

Sequence of GPR56 (Mus musculus) (Q8K209 26-382): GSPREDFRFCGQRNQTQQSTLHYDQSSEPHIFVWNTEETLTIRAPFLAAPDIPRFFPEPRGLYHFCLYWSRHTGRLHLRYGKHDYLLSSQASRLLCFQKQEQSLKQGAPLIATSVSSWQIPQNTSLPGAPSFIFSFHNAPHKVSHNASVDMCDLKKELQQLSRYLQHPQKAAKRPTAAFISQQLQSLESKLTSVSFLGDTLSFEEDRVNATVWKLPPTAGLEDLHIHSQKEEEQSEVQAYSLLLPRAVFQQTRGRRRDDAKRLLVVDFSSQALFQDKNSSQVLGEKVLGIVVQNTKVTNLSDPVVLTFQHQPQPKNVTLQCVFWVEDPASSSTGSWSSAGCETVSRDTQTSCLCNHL

Molecule: TG2 (from UniProt P21981)
Kd (GPR56 (Mus musculus)): 330 nM

binding result [1]: binds
binding result (wild type murine TG2): binds
binding result [2]: binds
Kd [3]: ~1200 nM
B1: 1-382 N-GPR56-Fc fusion protein (Fc fusion, human, UniProt Q9Y653 26-382, looked up)
chain: RGHREDFRFCSQRNQTHRSSLHYKPTPDLRISIENSEEALTVHAPFPAAHPASRSFPDPRGLYHFCLYWNRHAGRLHLLYGKRDFLLSDKASSLLCFQHQEESLAQGPPLLATSVTSWWSPQNISLPSAASFTFSFHSPPHTAAHNASVDMCELKRDLQLLSQFLKHPQKASRRPSAAPASQQLQSLESKLTSVRFMGDMVSFEEDRINATVWKLQPTAGLQDLHIHSRQEEEQSEIMEYSVLLPRTLFQRTKGRSGEAEKRLLLVDFSSQALFQDKNSSQVLGEKVLGIVVQNTKVANLTEPVVLTFQHQLQPKNVTLQCVFWVEDPTLSSPGHWSSAGCETVRRETQTSCFCNHL
notes: signal peptide in the construct; Fc retains the cysteine residues for dimerization; The limits 1-382 are printed for the SPR; also called human N-GPR56; source: CHO cells, transfected; conditioned medium, purified on protein G-Sepharose, or conditioned medium used directly; not shown: Fc (human IgG1 heavy chain, amino acids 3-236), C-terminal, kept
